Data published in publication PMC11965522 (Communications Biology, 2025).
Changes are numbered by the printed parent chain.

B1: P. furiosus Rad50 nucleotide-binding domain construct (aa 1-195 - GGAGGAGG linker - aa 709-882) (domain or fragment)
chain: MKLERVTVKNFRSHSDTVVEFKEGINLIIGQNGSGKSSLLDAILVGLYWPLRIKDIKKDEFTKVGARDTYIDLIFEKDGTKYRITRRFLKGYSSGEIHAMKRLVGNEWKHVTEPSSKAISAFMEKLIPYNIFLNAIYIRQGQIDAILESDEAREKVVREVLNLDKFETAYKKLSELKKTINNRIKEYRDILARTEGGAGGAGGRERVKKEIKDLEKAKDFTEELIEKVKKYKALAREAALSKIGELASEIFAEFTEGKYSEVVVRAEENKVRLFVVWEGKERPLTFLSGGERIALGLAFRLAMSLYLAGEISLLILDEPTPYLDEERRRKLITIMERYLKKIPQVILVSHDEELKDAADHVIRISLENGSSKVEVVS
B2: P. furiosus Rad50^NBD [change] [change]/[change], fluorophore-labeled (domain or fragment)
chain: B1 chain with L51C, S115E, S116E
B3: P. furiosus Rad50^NBD [change] [change], fluorophore-labeled (domain or fragment)
chain: B1 chain with L51C, R363E
B4: P. furiosus Rad50^NBD [change] [change], fluorophore-labeled (domain or fragment)
chain: B1 chain with L51C, K172E
B5: P. furiosus Rad50^NBD [change] [change]/[change], fluorophore-labeled (domain or fragment)
chain: B1 chain with L51C, R328E, R329E

biological target: T1, P. furiosus (Pf) Mre11, wild type (P. furiosus, UniProt Q8U1N9 1-426); assay: SEC

Binding result, binds:
B1

biological target: T1, P. furiosus (Pf) Mre11, wild type; assay: FRET or BRET

Binding result, binds:
B2
B3
B4
B5

Biological target: the molecule itself
Assay: FRET or BRET

Binding result, binds:
B2
B3
B4
B5
